Test results as given in patent US20120088276.

Columns and labels:
[1] = molecular target: T1, E. coli (strain K12) RecA protein, wild type
T1 chain: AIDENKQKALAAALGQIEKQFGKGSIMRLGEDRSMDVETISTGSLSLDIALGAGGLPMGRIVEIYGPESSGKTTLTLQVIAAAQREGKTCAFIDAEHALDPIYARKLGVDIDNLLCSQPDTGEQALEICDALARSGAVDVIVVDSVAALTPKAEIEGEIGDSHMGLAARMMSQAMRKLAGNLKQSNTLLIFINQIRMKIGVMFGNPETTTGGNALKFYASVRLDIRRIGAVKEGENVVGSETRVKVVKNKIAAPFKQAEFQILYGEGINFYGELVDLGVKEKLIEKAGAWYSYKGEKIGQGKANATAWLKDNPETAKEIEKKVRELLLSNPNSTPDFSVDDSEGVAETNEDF

B1: bacteriophage P1 Ref protein (wild type) (protein)
chain: MKTIEQKIEQCRKWQKAARERAIARQREKLADPVWRESQYQKMRDTLDRRIAKQKERPPASKTRKSAVKIKSRGLKGRTPTAEERRIANALGALPCIACYMHGVISNEVSLHHIAGRTAPGCHKKQLPLCRWHHQHAAPAEVREKYPWLVPVHADGVVGGKKEFTLLNKSEMELLADAYEMANIMH
targeted cleavage of both strands of duplex DNA at RecA-created D-loops (restriction analysis, agarose gel) (RecA E38K mutant protein): the Ref-induced breaks in the circular double stranded DNA occur where the RecA-bound oligonucleotide invaded the duplex DNA to form a D-loop
nuclease activity (degradation of M13mp18 circular ssDNA, agarose gel) [1]: the nuclease activity depended on both Ref and active RecA filaments
